According to the nanobody polyreactivity screen of Harvey et al. (2022):

Experiment: yeast display, Sf9 membrane polyspecificity reagent, FACS + sequencing; frameworks hold sequencing errors
Procedure, shortened: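 In a synthetic yeast display library (Saccharomyces cerevisiae BJ5465), nanobody expression was induced with galactose for 36–48 hours. FACS gates were set low and high (top ~1%) using anti-HA fluorescence for expression and streptavidin fluorescence for binding of the Sf9 membrane reagent. Each polyreactivity label is drawn from the gate of origin.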

Sequence | polyreactivity (PSR sort gate)
QVQLVESWGGLVQAGGSLRLSCAASGSTFRSNAMGWYRQAPGKERELVAAITGSGGSTYYADSVKGRYTISRDNAKNTVYLQMNSLKPEDTAVYYCWGLGTQVTVSS | low polyreactivity
QVQLVESWGGLVQAGGSLRLSCAASGSTFYRYAMGWSRQAPGKERELVAAINTGGSTNYADSVKGRFTISRDNAKNTVYLQMNSLKPEDTAVYYCAARFQYYRKYDYWGQGTQVTVSS | low polyreactivity
QVQLVESWGGLVQAGGSLRLSCAASGSTSVYYAMGWYRQTPGKERELVDAITWDDGSTSYADSVKGRFTISRDNAKNTVYLQMNSLKPEDTEVYYCAKDYEYLGAFNYWGQGTQVTGSS | low polyreactivity
QVQLVESWGGLVQAGGSLRLSCADSGYIYDHYDMGWYRQAPGKDRELVAAISRSAGSTYYADSVKGRFTITRDNAKNTVYLQMNSLKPEDSAVYYCAADGKYYHRRPGWPIYDYWGQGTQVTVSS | high polyreactivity
QVQLVESWGGLVQAGGSLRLSCADSGYTFYTNAMGWYREAPGKERELVAAISIGGNTNYADSVKGRFTISRDNAKNTVYLQMNSLKPEDTAVYYCAKAWSGISSRDYDLDYWGQGTQVTVSS | low polyreactivity
QVQLVESWGGLVQAGGSLRLSCGASGYSFQPYTMGWYRQAPGKERELVAAISKSGTRTYYADSVKGRFTISRDNAKNTVYLQMNSLKPEDTAVYYCAARYTGNLFDYWGQGTQVTVSS | high polyreactivity
QVQLVESWGGLVQAVGSLRLTCAASGVIFAIYAIGLYRQAAGKEREMVSSIRWSSGRTYYPDSVKGRFTISRDNAKNTVYLQMNSLKPEDTAVYNCAATPSIFTIHRQDYDYWGQGTQVTVSS | high polyreactivity
QVQLVESWGGLVQPGGSLRLRCAASGLIFGRNAMGWYRQAPGKERELVAAISWSGGSTYYADSVKGRFTISRDNAKNTVYLQMNSLKPEDTAVYYCYRYRYYGSEDDYWGQGTQVTVSS | high polyreactivity
QVQLVESWVGLVQAGGSLRLSCAASGNTFKYYDMGWYRQAPGKERELVATISRTAGSTYYADSVKGRFSISRDYAKNTVYLQMNSLKPEDTAVYYCNKDRGHPFKYDYWGQGTQVTVSS | low polyreactivity
QVQLVETGAGLVQAGGSLRLSCAASGRTYVYNAMGWYRQAPGKERELVAAIDGGGDRTYYADSVKGRFTISRDNAKNTVYLQMNSRKPEDTAVYYCARDQGDTYYYSYPEGDYWGQGTQVTVSS | low polyreactivity
QVQLVETGAGLVQAGGSLRLSSAASGFIFYPYAMGWYRQAPGKERELVAVINKSSDNTYYADSVKGRFTISRDNAKNTVYLQMNSLKPEDTAVYYCAAEYVFYSRFFTEEYWGQGTQVTVSS | low polyreactivity
QVQLVETGGGIVQAGASLRLSCAASGRIFPPYAMGWYRQAPGKERELVAAISSSGGSTYYADSVKGRFTISRDNGKNTVYLQMNSLKPEDTAVYYCATFFARGYNSWGQGTQVTVSS | high polyreactivity
QVQLVETGGGIVQAVGSLRLSCAASGSTFGWNAMGWNRQAPGKERELVAVISSDGRTYYADSVKGRFTISRDNAKNTVYLQMISLKPEDTAVYYCAKRAWGFGGYDYWGQGTQVTVSS | low polyreactivity
QVQLVETGGGLFQAGGSLRISCAASGFIFTLYAMGWYRQAPGKERELVAAINSGGSTDYADSVKGRFTISRDNAKNTVYLQMNSLKPEDTAVYYCAAGNTYAGSDYWGQGTQVTVSS | low polyreactivity
QVQLVETGGGLVQAGGRLRLSCAASGRILPGNAMGWSRQAPGKERELVAAISSGGRTNYADSVKGRFTISRDNAKNTVYLQMNSLKPEESAVYYCAKRTVWWSNWHYYPPTYNYWGQGTQVTVSS | high polyreactivity
QVQLVETGGGLVQAGGRLRLSCAASGSIFPDYDMGWYRQAPGKQRELVAAISSSGDSTYYADSVKGRFTISRDNAKNTVYLLMNSLKPEDTAVYYCAVDGTRSTSNGSEFTGYNYWGQGTQVTVSS | low polyreactivity

Sequence | polyreactivity (PSR sort gate)
QVQLVETGGGLVQAGGSLRISCAASGRIFGWYAMGWYRQAPGKERELVAGINYGGGRTYYADSVKGRFTISRDNAKNTVYLQMNSLKPEDTAVYYCAAGISGHYYWGQGTQVTVSS | high polyreactivity
QVQLVETGGGLVQAGGSLRISCAPSGRTFRNNDMAWYRQAPGTEREFVAVISNTGGSTYYADSVKGRFTNSRDNAKNTVYLQMNSLKPEDTAVYYCAVRPRYSQYYYWGQGTQVTVSS | high polyreactivity
QVQLVETGGGLVQAGGSLRISCAPSGSTFAGYAMGWYRQAPGKERELVAAISYSGGTTYYADSVKGRFTISRDNAKNTVYLQMNSLKPEDTAVYYCAARKKYKTPSNDMYYWGQGTQVTVSS | high polyreactivity
QVQLVETGGGLVQAGGSLRLICAASGRIFTWYAMGWYRQGPGKERELVATNSYNGGRTYYADSVKGRFTISRDNAKNTVYLQMNSLKPEDNAVYYCNTVPVGSVSHGLDSRFGYWGQGTQVTVSS | high polyreactivity
QVQLVETGGGLVQAGGSLRLICAASGSTFQNNAMGCYIQAPGKERELVAAIRFSGGSTYYADSVKGRFTISRDNAKNTVYLQMNSLKPEDTAVYYCNAVVKRWSDYSYPVRYDYWGQGTQVTVSS | high polyreactivity
QVQLVETGGGLVQAGGSLRLRGAASGSTNYNYAMGWYRQAPGKERELVAAISISGGSPYYADSVKGRFTISRDNANNTVYLQMYSLKAEDTAVYYCAAVRLGSRGGYCGQGTQVTVSS | high polyreactivity
QVQLVETGGGLVQAGGSLRLSCAASGCTFKYNTMGWYRQAPGKERELVAAITSGGGSTNYADSVKGRFTISRDNAKNTVYLQMNSLKPEDTAVYYCAAYRRNTYWGQVTQVTVSS | high polyreactivity
QVQLVETGGGLVQAGGSLRLSCAASGFIFRKYAMGWYRQAPGKERELVAAITASGGSTYYADSVKGRFTISRDNAKNTVYLQMNSLKPEDTAVYYCATDYHGAERWLKYVYWGQGTQVTVSS | high polyreactivity
QVQLVETGGGLVQAGGSLRLSCAASGFIFVKYAMGWYRQAPGKERELVAAITTSGTGTFYADSVKGRFTISRDNAKNTVYLQMNSLKPVDTAVYYCNALGHPGDDWGQVTQVTVSS | low polyreactivity
QVQLVETGGGLVQAGGSLRLSCAASGFTFASYAMGWYRQAPGKERELVAAITWGTGTTSYADSVKGRFTISRDNAKNTVYLQMNSLKPEDTAVYYCATRYRQITYRRRYDYWGQGTQVTVSS | low polyreactivity
QVQLVETGGGLVQAGGSLRLSCAASGFTFGSNAMGWYRQAPGKEREFVAAITYSGGGTYADSVKGRFTISRDNAKHTVDLQMNSLKPEDTAVYYCATDAYRWHYWNFGFGYWGQGTQVTVSS | high polyreactivity
QVQLVETGGGLVQAGGSLRLSCAASGFTFNNYAMGWYRQAPGTERELVAAISWSGGRTYYPDSVMGRFTISSDNAKNTVYLQMNSLNTEDTAVYYCAADFSGSVDYWGQGTQVTVSS | high polyreactivity
QVQLVETGGGLVQAGGSLRLSCAASGFTFPYNAMGWYRQAPGKERELVAAISSTGGITYYADSVKGRFTISRDNAKNTVYLQMNSLKPEDTAVYYCGWYDYWGQGTQVTVSS | low polyreactivity
QVQLVETGGGLVQAGGSLRLSCAASGGSFTYNALGWDRQSPGKERALVAAITDSGGSTFADSVKGRFTISRDIAKNNVYLQMNSLKPEDTAVYYCAAGDGDTGSMYLRKLSDYWGQGTQVTVSS | low polyreactivity
QVQLVETGGGLVQAGGSLRLSCAASGITFAYNTMGWYIQAPGKERELVAGISFSGASTYYADSVKGRFTISRDYAKNTVYLQMNSLKPEDTAVYDCAAPRWVANQYREYDYWGQGTQVTVSS | high polyreactivity
QVQLVETGGGLVQAGGSLRLSCAASGITFWYYAMGWYIQAPGKERELVAAITSGGSTYYADSVKGRFTISRDNAKNTVYLQMNSLKPEDTAVYYCAKDSVWGAKNLTSYKYYYWGQGTQVTVSS | low polyreactivity
